This is an account of results in patent publication US20220323598A1 (NATIONAL UNIVERSITY CORPORATION TOKAI NATIONAL HIGHER …, published 2022).

Assay [1] deals with T1, human ROR1 protein (GenBank accession No. NP_005003.2) (human, UniProt Q01973 30-937).
T1 construct: whole, on cells; also called hROR1; endogenous human ROR1
Briefly: flow cytometry on NCI-H358 cells, relative affinity. On the procedure:
To inspect response of the antibodies obtained as described above to an endogenous human ROR1, response to an ROR1 high expressing cell NCI-H358 (ATCC accession No. CRL-5807) line was observed as below. The antibodies were purified from the culture supernatant of each hybridoma clone by a general affinity purification method using Protein A-Sepharose, respectively. The obtained purified antibodies were analyzed for the average fluorescence intensity of flow cytometry under the same condition (the same number of NCI-H358 (1×10⁵), the same concentration of respective purified antibodies, and the same concentration of secondary (detected) antibodies). Further, data was acquired also for the average fluorescence intensity that depends on the antibody concentration, the detection limit at a low concentration was analyzed, and thereby relative affinity was evaluated. FIG. 2 to FIG. 4 illustrate the results in a form of graphs. The horizontal axis of each graph represents the used antibody concentration (ng/mL), and the vertical axis represents the average fluorescence intensity (MFI) in flow cytometry. FIG. 2A is a diagram illustrating the response of anti-human ROR1 antibodies to ROR1 expressing cells of acquired monoclonal antibodies (2 AM series and 2AC series). […]
On the technique in general: A flow cytometer gives signals particle by particle.

Assay [2] deals with T1, human ROR1 protein (GenBank accession …). Briefly: flow cytometry, Alexa Fluor 488 labeled antibody at 1 µg/ml on ROR1 high (NCI-H1975, PC-9) and ROR1 low (A427, NCI-H460) expressing cell lines. The text has this:
To inspect response of antibodies obtained as described above to an endogenous human ROR1, the response to the ROR1 high expressing cell line (NCI-H1975, PC-9) and the ROR1 low expressing cell line (A427, NCI-H460) was observed as follows. Note that NCI-H1975 (ATCC accession No. CRL-5908), A427 (ATCC accession No. HTB-53), and NCI-H460 (ATCC accession No. HTB-177) were purchased from American Type Culture Collection. The PC-9 cell line (RCB 4455) was obtained from RIKEN cell bank. Various cell lines were seeded on 6-well dishes to have 2×10⁵/well, cultured at 37 degrees Celsius for 24 hours, and collected after PBS washing. After chimerized antibodies labeled by using Alexa Fluor (registered trademark) 488 Antibody Labeling Kit (Thermo Fisher Scientific; A20181) were diluted to 1 μg/ml and reacted on ice for one hour, the resultant was washed with a PBS, and the reaction intensity was analyzed by flow cytometry. […] FIG. 6 illustrates graphs indicating the response of chimerized antibodies to the ROR1 high expressing cell line and the ROR1 low expressing cell line.

T1 sequence (Q01973 30-937): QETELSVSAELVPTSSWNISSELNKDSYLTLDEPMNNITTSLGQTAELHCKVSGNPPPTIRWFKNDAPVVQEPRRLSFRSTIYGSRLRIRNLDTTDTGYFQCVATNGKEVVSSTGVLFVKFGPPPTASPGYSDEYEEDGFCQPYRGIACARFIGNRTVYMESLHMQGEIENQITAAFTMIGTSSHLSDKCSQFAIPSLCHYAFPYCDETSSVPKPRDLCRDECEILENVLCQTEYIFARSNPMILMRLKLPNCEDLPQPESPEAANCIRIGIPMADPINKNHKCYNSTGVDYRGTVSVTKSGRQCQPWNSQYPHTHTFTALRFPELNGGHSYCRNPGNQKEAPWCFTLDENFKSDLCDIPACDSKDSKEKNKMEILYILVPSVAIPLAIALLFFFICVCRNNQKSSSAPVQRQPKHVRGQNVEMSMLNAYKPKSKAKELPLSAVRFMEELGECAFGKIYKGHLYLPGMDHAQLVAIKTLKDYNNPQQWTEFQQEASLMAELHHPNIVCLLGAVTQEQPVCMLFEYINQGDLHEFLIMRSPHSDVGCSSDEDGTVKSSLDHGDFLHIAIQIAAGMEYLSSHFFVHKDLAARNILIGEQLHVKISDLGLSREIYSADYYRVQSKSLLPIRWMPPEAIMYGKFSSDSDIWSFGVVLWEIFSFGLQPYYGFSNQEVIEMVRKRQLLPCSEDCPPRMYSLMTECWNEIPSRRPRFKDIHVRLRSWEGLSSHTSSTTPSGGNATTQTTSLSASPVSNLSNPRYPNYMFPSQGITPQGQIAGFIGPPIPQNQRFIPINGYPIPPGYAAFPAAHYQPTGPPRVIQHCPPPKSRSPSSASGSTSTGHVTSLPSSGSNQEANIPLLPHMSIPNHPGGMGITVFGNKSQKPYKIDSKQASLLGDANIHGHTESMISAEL

B1: 2DC_5-2 (antibody, mouse IgG1, V domains shown)
VH: EVKLVESGGGLVKPGGSLKLSCAASGFTFSSYAMSWVRQTPEKRLEWVAAINTKGGSTYYPDTVKDRFTISRDNAKNILYLQMSSLRSEDTALYYCARHEPVYDYAMDYWGQGTSVTVSS
VL: DIKMTQSPSSMYASLGERVTITCKASQDINSYLSWFQQKPGKSPKTLIYRANRLVDGVPSRFSGSGSGQDYSLTISSLECGDMGIYYCLQYDEFPYTFGGGTKLEIK
notes: VH was cloned with a mouse IgG1 CH1 primer and VL with a kappa constant region primer; also called clone 2DC_5-2
As to B1, the binding result in assay [1] was “binds”.

B2: chimeric antibody M1 (antibody, human IgG1, V domains shown)
VH: B1 VH
VL: B1 VL
notes: Mouse VH and VL of 2DC_5-2 in a vector carrying the human IgG1 constant region; also called chimerized antibody obtained from clone 2DC_5-2
Regarding B2, the binding result in assay [2] is reported as “binds”.

B3: 6AM_120-2 (antibody, mouse IgG1, V domains shown)
VH: EIQLQQSGAELVKPGASVKISCKASGYSFTGYNMNWVKQSHGKSLEWIGNINPYYGNTSYNQKFKGKATLTVDKSSSTAYMQLNSLTSEDSAVYYCAREGFEYFDYWGQGTTLTVSS
VL: DIQMTQSPASLSASVGETVTITCRASENIYSYLAWYQQKQGKSPQLLVYNVKTLAEGVPSRFSGSGSGTQFSLKINSLQPEDFGSYYCQHHYGIPYTFGSGTKLEIK
notes: VH was cloned with a mouse IgG1 CH1 primer and VL with a kappa constant region primer
B3: the binding result in assay [1] was “binds”.

B4: chimeric antibody M3 (antibody, human IgG1, V domains shown)
VH: B3 VH
VL: B3 VL
notes: Mouse VH and VL of 6AM_120-2 in a vector carrying the human IgG1 constant region; also called chimerized antibody obtained from clone 6 AM_120-2
For B4, in assay [2], the binding result is “binds”.
